Measured values from patent US7910100B2, “Antibodies directed to the mammalian EAG1 ion channel protein” (Max-Planck-Gesellschaft zur Forderung der Wissen, priority 2004, dated 2011).

T1: Eag1 current (Homo sapiens, UniProt O95259)
T1 construct: expressed in transfected cells
T1 sequence (O95259 1-962 isoform O95259-2): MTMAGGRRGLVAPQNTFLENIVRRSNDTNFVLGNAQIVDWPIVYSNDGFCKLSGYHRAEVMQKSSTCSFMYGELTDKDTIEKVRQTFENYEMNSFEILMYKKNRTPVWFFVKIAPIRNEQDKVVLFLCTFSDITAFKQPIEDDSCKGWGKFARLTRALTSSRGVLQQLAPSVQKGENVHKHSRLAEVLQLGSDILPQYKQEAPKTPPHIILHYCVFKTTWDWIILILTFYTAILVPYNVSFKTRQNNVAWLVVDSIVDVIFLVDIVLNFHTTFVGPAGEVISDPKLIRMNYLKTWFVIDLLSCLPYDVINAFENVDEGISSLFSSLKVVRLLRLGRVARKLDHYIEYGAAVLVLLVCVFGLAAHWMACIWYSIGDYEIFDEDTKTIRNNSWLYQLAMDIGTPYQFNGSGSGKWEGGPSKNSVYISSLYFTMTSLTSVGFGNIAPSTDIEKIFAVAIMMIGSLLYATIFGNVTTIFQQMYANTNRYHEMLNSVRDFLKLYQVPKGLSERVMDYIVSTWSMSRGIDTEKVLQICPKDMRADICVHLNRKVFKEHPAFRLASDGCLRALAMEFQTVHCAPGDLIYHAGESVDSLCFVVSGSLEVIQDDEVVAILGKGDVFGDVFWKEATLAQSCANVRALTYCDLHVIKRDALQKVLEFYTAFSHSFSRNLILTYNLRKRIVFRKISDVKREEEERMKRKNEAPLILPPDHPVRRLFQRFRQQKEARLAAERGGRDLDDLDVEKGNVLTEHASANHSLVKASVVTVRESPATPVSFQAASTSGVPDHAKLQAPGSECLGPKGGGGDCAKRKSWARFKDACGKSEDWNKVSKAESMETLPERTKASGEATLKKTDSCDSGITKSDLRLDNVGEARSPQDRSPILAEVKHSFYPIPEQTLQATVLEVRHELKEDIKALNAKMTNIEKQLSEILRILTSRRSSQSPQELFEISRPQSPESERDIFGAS

B1: ImAb1: mouse monoclonal anti-Eag1 antibody; VL SEQ ID NO: 43, VH SEQ ID NO: 44; binds C-terminus of Eag1 (antibody, listed as Mus musculus)
heavy: MNFGFSLIFLVLVLKGVQCEVKLVESGGGLVKPGGSLKLSCAASGFTFSNYAMSWVRQTPEKRLEWVASISSDGDTYFPDNVKGRFTISRENAGNILFLQMSSLRSEDTAMYYCARGFMITFWGQGTLVTVSAAKTTPPSVYPLAPGCGDTTGSSVTLGCLVKGYFPESVTVTWNSGSLSSSVHTFPALLQSGLYTMSSSVTVPSSTWPSQTVTCSVAHPASSTTVD
light: MDMRAPAQFFGILLLWFPGIRCDIKMTQSPSSMYASLGERVTITCKASQDIKSYLSWYQQKPWKSPKILIYYATSLADGVPSRISGSGSGQDYSLTISSLESDDTATYYCLQHGESPYTFGGGTKLEIKRADAAPTVSIFPPSSEQLTSGGASVVCFLNNFYPKDINVKWKIDGSERQNGVLNSWTDQDSKDSTYSMSSTLTLTKDEYERHNSYTCEATHKTSTSPIVKSFNRNEC
B2: ImAb4: mouse monoclonal anti-Eag1 antibody, IgG2b kappa; light chain SEQ ID NO: 2, heavy chain SEQ ID NO: 4 (antibody, listed as Mus musculus)
heavy: MRVLILLWLFTAFPGILSDVQLQESGPGLVKPSQSLSLTCTVTGYSITSDYAWNWIRQFPGNKLEWMGYISYSGSTIYNPSLKSRISITRDTSKNQFFLQLNSVTTEDTATYYCARFGNYGNTLNYWGQGTSVTVSSAKTTPPSVYPLAPGCGDTTGSSVTLGCLVKGYFPESVTVTWNSGSLSSSVHTFPALLQSGLYTMSSSVTVPSSTWPSQTVTCSVAHPASSTTVDKKLEPSGPISTINPCPPCKECHKCPAPNLEGGPSVFIFPPNIKDVLMISLTPKVTCVVVDVSEDDPDVQISWFVNNVEVHTAQTQTHREDYNSTIRVVSTLPIQHQDWMSGKEFKCKVNNKDLPSPIERTISKIKGLVRAPQVYILPPPAEQLSRKDVSLTCLVVGFNPGDISVEWTSNGHTEENYKDTAPVLDSDGSYFIYSKLNMKTSKWEKTDSFSCNVRHEGLKNYYLKKTISRSPGK
light: MKLPVRLLVLMFWIPASSSDVVMTQTPLSLPVSLGDQASISCRSSQSLVHSNGNTYLHWYLQKPGQSPKLLIYKVSNRFSGVPDRFSGSGSGTDFTLKISRVEAEDLGVYFCSQSTHVPPTFGGGTKLEIKRADAAPTVSIFPPSSEQLTSGGASVVCFLNNFYPKDINVKWKIDGSERQNGVLNSWTDQDSKDSTYSMSSTLTLTKDEYERHNSYTCEATHKTSTSPIVKSFNRNEC

Tests used:
Eag1 current = target: T1, Eag1 current; assay: Two-electrode voltage clamp in Eag1-expressing oocytes; assay type: cell-based; conditions: 10% hybridoma supernatant
Procedure: In order to analyse the functional properties of anti-Eag1 antibodies of the invention were analysed by a two-electrode voltage clamp experiment. Therefore, Oocyte preparation and electrophysiological recordings were performed as described in Stühmer, W., 1992, Methods in Enzymology 207. Oocytes were injected with synthetic mRNA coding for Eag1, incubated for 48 h and recorded in NFR (115 mM NaCl, 1.8 CaCl2, 2.5 KCl, 10 Hepes pH 7.2) until stable traces were recorded. Then, 10% of the corresponding hybridoma supernatant producing ImAb1 or ImAb3 was added to the chamber and current amplitudes were further monitored.

IPC-298 melanoma cells [1] = assay: IPC-298 cell proliferation assay (AlamarBlue); assay type: cell-based, human; conditions: 5 μg/ml antibody, 7 days, pre-incubation with 40 mM KCl
Procedure: In vitro experiments were conducted in order to determine the ability of the antibodies of the invention to inhibit cancer cell proliferation. 1000 IPC-298 cells were seeded in 60 μl/well 10% FCS-containing medium (DMEM […] glucose) on 96-well plates overnight. Cells were pre-incubated in quadruplicates with 5 μg/ml anti-Eag1 monoclonal antibodies, ImAb1 and ImAb3, diluted in FCS-containing medium with 40 mM KCl for 1 h at 37° C. in 5% CO2. Treatment of the cells with 40 mM KCl ensures an open conformation of the ion channel Eag1 and might accelerate binding of the monoclonal anti-EAG1 antibodies to its corresponding epitope. After 1 h incubation, supernatants were removed and replaced with 100 μl/well FCS-containing medium with 5 μg/ml anti-Eag1 antibodies, ImAb1 and ImAb3. Cells were then incubated at 37° C. in 5% CO2 for 7 days. In order to assess proliferation and cell viability 10 μl/well AlamarBlue™ (BIOSOURCE) was added and incubated at 37° C. in the dark. Absorbance was measured using a spectrofluorometer at 590 nm every 30 min.

IPC-298 melanoma cells [2] = assay: IPC-298 cell proliferation with secondary immunotoxin Mab-ZAP; assay type: cell-based, human; conditions: in combination with secondary immunotoxin Mab-ZAP (100 ng/well), 72 hours
Procedure: In order to evaluate the specific suitability and efficacy of anti-Eag1 monoclonal antibodies for conjugation as primary immunotoxin, in vitro cell proliferation assays were performed in the presence of anti-Eag1 antibody in conjunction with a secondary antibody conjugated to saporin, a ribosome-inactivating protein from the seeds of the plant Saponaria officinalis. The secondary immunotoxin binds to the anti-Eag1 antibody is internalized into the cell alongside the primary antibody. Once the immunotoxin is internalised, saporin breaks away from the targeting agent and inactivates the ribosomes, which causes protein inhibition and, ultimately, cell death.
For the assay (FIG. 8a) 3000 IPC-298 cells were seeded in 60 μl/well FCS-containing medium on 96-well plates overnight. 100 ng/well (1 ng/μl) Mab-ZAP was mixed with 10 ng/μl of mouse monoclonal anti-Eag1 antibodies ImAb1 or ImAb4 in 40 μl FCS-containing medium for 1 h at 37° C. and then directly added to the cells in quadruplicates. […] The quantity of formazan product was measured by the amount of 490 nm absorbance using an ELISA plate reader.
For the assay shown in FIG. 8b 3000 IPC-298 cells were seeded in 60 μl/well FCS-containing medium on 96-well plates overnight. […] Absorbance was measured using a spectrofluorometer at 590 nm every 30 min.

Molecule | inhibition of Eag1 current (Eag1 current) | inhibition of cell proliferation (IPC-298 melanoma cells [1]) | inhibition of cell proliferation (IPC-298 melanoma cells [2])
B1 | No inhibition of Eag1 current was detected | inhibit human cancer cell growth | 
B2 |  |  | inhibition of IPC-298 melanoma cell proliferation
